Laboratory results reported in patent US20240131207A1, “NUCLIDE-LABELED INHIBITORY PEPTIDE, AND PREPARATION METHOD THEREFOR AND USE THEREOF” (SUZHOU UNIVERSITY, priority 2022, published 2024).
No end group written: not given here. *: point of attachment. DOTA = O=C(O)CN1CCN(CC(=O)O)CCN(CC(=O)*)CCN(CC(=O)O)CC1

What was measured:
B16F10 cells [1] = experiment: Binding and inhibition assay of B16F10 cells to 68Ga-AP1; type: cell-based, mice; conditions: 0.11 MBq/mL 68Ga-AP1 with AP1 0-360 μg/mL, 1 h
Description: • (1) When the cells grew to more than 90%, the cells were digested with 0.25% pancreatin, the cell concentration was adjusted to 1×10^5 cells/mL, the cells were plated in a 24-well plate, and 0.5 mL of culture medium was added to each well. […] 0.5 mL of 0.11 MBq/mL ^68Ga-AP1 was the source count T. • (5) The radioactivity of the liquid (^68Ga-AP1) detected and collected by the radioimmunotube of each concentration of AP1 was denoted as count B. • (6) The cellular uptake was B/T×100%, and the half inhibitory concentrations were fitted based on different concentrations of AP1. FIGS. 5A-5B show a competitive binding and inhibition experiment between ^68GaAP1 and AP1.

[2] = Stability analysis of 68Ga/177Lu labeled product in PBS by HPLC; type: physicochemical; conditions: within 24 hours, stability data determined with 177Lu
Description: • (1) The HPLC mobile phases were water and acetonitrile (each containing 0.1% TFA), and the gradient was set from 20% to 50% acetonitrile concentration over a period of 30 minutes. • (2) The injection analysis of ^68Ga/^177Lu-AP1 in PBS at different time points (0, 1.5, 3.5, and 24 h) under the same condition is shown in FIG. 2 (identification and purification of ^68Ga/^177Lu-labeled AP1 product) (The radiation peak of the product is mainly the peak of the polypeptide. Since the half-life of ^68Ga is only 68 minutes, and the amount of radiation injected is very small, the stability data is determined by ^177Lu (6.71 days) with a longer half-life).

[3] = B16F10 tumor-bearing mouse, tail vein injection
Description: (§1) • (1) The ^68Ga-AP1 imaging probe was used for screening a high expression group and a low expression group of tumor ASF1a, and 20 μCi of ^68Ga-AP1 was injected into the tail vein of each mouse. After 0.5, 1.5, 3.5 and 5.5 h after injection, each important organ was dissected and separated. Each organ weight was measured and calculated as % ID/g=organ radioactivity count/(organ weight×source count)×100% for 3 mice per time point. • (2) Mice were sacrificed at 10 min, 20 min, 30 min, 1.5 h, 3.5 h, 5.5 h respectively after tail vein injection of ^68Ga-AP1, the radioactivity of the organs in the blood of the mice was measured, n=3 was measured at each time point, and the mean value of each time point was taken, and an intravascular two-compartment model was selected to fit hemodynamic parameters using PKSover software.

in vivo = conditions: mouse, tumor, iv, 20 uCi per mouse, total radioactivity, after 5.5 hours, B16F10 tumor-bearing mouse
Description: as §1

B16F10 cells [4] = system: B16F10 cells
Description: Safety of radiolabeled ^68Ga-AP1 imaging probe • (1) The B16F10 cells of mice in the logarithmic growth phase were taken and digested by using 0.25% pancreatin, and the cell concentration was adjusted to 6×10^4 cells/mL; the cells were plated in a 96-well plate at a volume of 100 μL per well, the cell concentration was 6×10^3 cells per well, and the cells were incubated overnight in an incubator at 37° C./5% CO2; • (2) the medium was replaced for each group of cells, 100 μL of a culture solution with a specified concentration was added, and the radioactive doses were taken as 0, 1, 2.5, 10, 25, 50, 100, and 200 μCi/mL; after 12 h, the normal culture medium was used and 10 μL of CCK8 solution (10%) was added, and the culture was continued in an incubator for 1 h; • (3) after 1 h, the absorbance at 450 nm of each well was measured using a microplate reader. The relative survival rate of the cells was calculated according to the measured OD value. Cell viability=(material added group−blank group)/(control group−blank group)×100%.

[5] = mice, tail vein injection, two-compartment model
Description: as §1

B16F10 cells [6] = experiment: Growth inhibitory effect of 177Lu-AP1 on B16F10 cells (CCK8); type: cell-based, mice; conditions: radioactive dose 600 μCi/mL, incubated 24 hours, then 24 hours in normal medium
Description: • (1) The B16F10 cells of mice in the logarithmic growth phase were taken and digested by using pancreatin, and the cell concentration was adjusted to 4×10^4 cells/mL; the cells were plated in a 96-well plate at a volume of 100 μL per well, the cell concentration was 4×10^3 cells per well, and the cells were incubated overnight in an incubator at 37° C./5% CO2; • (2) the medium was replaced for each group of cells, 100 μL of culture solution with a specified dosage was added, and ^177LuCl3 and ^177Lu-AP1 with the same dosage concentration were added into two 96-well plates, wherein dosage concentrations were 0, 10, 100, 200, 300, 400, 500 and 600 μCi/mL; after 24 h, the normal culture medium was used to continue culturing; • (3) a culture medium with 10 μL of CCK8 solution (10%) was added at 24 h and 48 h after the normal culture medium was used, and the culture was continued in the incubator for 1 h; • (4) after 1 h, the absorbance at 450 nm of each well was measured using a microplate reader. The relative survival rate of the cells was calculated according to the measured OD value. Cell viability=(material added group−blank group)/(control group−blank group)×100%.

B16F10 cells [7] = conditions: 0-100 μg/mL
Description: (§2) • (1) The skin melanoma B16F10 cells of mice in the logarithmic growth phase were taken and digested by using 0.25% pancreatin, and the cell concentration was adjusted to 6×10^4/mL; the cells were plated in a 96-well plate at a volume of 100 μL per well, the cell concentration was 6×10^3 cells per well, and the cells were incubated overnight in an incubator at 37° C./5% CO2; • (2) the medium was replaced for each group of cells, and 100 μL of a culture solution with a specified concentration was added, wherein the concentration of each dose was 0, 0.5, 1, 5, 10, 20, 50 and 100 μg/mL; after 24 h, a DMEM medium (containing 10% of North American fetal bovine serum and 1% of double antibody) was used, and the culture was continued; • (3) 10 μL of CCK8 solution (10%) was added at 0 h and 24 h after the normal culture medium was used, and the culture was continued in the incubator for 1 h; • (4) after 1 h, the absorbance at 450 nm of each well was measured using a microplate reader. The relative survival rate of the cells was calculated according to the measured OD value. Cell viability=(material added group−blank group)/(control group−blank group)×100%.

in vitro = conditions: mouse, B16F10 cells
Description: as §2

Compound: {DOTA}-YGRKKRRQRRRCASTEEKWARLARRIAGAGGVTLDGFGGCA-OH (N-terminus assumed; cysteines drawn unpaired) [^68Ga-AP1, metal not drawn]
- uptake in B16F10 cells inhibited by AP1 (B16F10 cells [1]): can be specifically uptaken
- stability of the labeled product [2]: good stability
- route of metabolism (in vivo biodistribution) [3]: mainly metabolized through liver and kidney
- tissue uptake at 5.5 h (in vivo; tumor % ID/g in tumor high-intake group, high-intake group): 18.9 ± 0.248 %ID/g
- tissue uptake at 5.5 h (in vivo; tumor % ID/g in tumor low-intake group, low-intake group): 5.24 ± 1.73 %ID/g
- biocompatibility of the PET/CT imaging probe (B16F10 cells [4]; 0-200 μCi/mL): good biocompatibility
- cell survival rate (B16F10 cells [4]; radioactivity at most 200 μCi/mL): 95.31±9.05%
- half-discharge time in the blood [5]: 2.1933 h
- mean residence time (MRT) in vivo [5]: 3.1643 h

Compound: [Cl][177Lu]([Cl])[Cl] [^177LuCl3]
- cell survival rate after 24 hours (B16F10 cells [6]): 82.19±16.69%

Compound: {DOTA}-YGRKKRRQRRRCASTEEKWARLARRIAGAGGVTLDGFGGCA (cysteines drawn unpaired) [AP1]
- biocompatibility of the polypeptide (B16F10 cells [7]): good biocompatibility
- viability at 24 h, 100 µg/mL (in vitro): 94.7 ± 11%
- viability at 48 h, 100 µg/mL (in vitro): 103 ± 5.76%
